Reference: paper PMC10908827, “Structural insight into an Arl1–ArfGEF complex involved in Golgi recruitment of a GRIP-domain golgin” (Nature Communications, 2024)
One block for each molecule: values may come before it.

B1: S. cerevisiae full-length Gea2 with an N-terminal 6xHis-tag (natural protein, UniProt P39993 1-1459, looked up)
chain: MSDREFVTVDPVTIIIKECINLSTAMRKYSKFTSQSGVAALLGGGSEIFSNQDDYLAHTFNNLNTNKHNDPFLSGFIQLRLMLNKLKNLDNIDSLTILQPFLLIVSTSSISGYITSLALDSLQKFFTLNIINESSQNYIGAHRATVNALTHCRFEGSQQLSDDSVLLKVVFLLRSIVDSPYGDLLSNSIIYDVLQTILSLACNNRRSEVLRNAAQSTMIAVTVKIFSKLKTIEPVNVNQIYINDESYTNDVLKADTIGTNVESKEEGSQEDPIGMKVNNEEAISEDDGIEEEHIHSEKSTNGAEQLDIVQKTTRSNSRIQAYADDNYGLPVVRQYLNLLLSLIAPENELKHSYSTRIFGLELIQTALEISGDRLQLYPRLFTLISDPIFKSILFIIQNTTKLSLLQATLQLFTTLVVILGNNLQLQIELTLTRIFSILLDDGTANNSSSENKNKPSIIKELLIEQISILWTRSPSFFTSTFINFDCNLDRADVSINFLKALTKLALPESALTTTESVPPICLEGLVSLVDDMFDHMKDIDREEFGRQKNEMEILKKRDRKTEFIECTNAFNEKPKKGIPMLIEKGFIASDSDKDIAEFLFNNNNRMNKKTIGLLLCHPDKVSLLNEYIRLFDFSGLRVDEAIRILLTKFRLPGESQQIERIIEAFSSAYCENQDYDPSKISDNAEDDISTVQPDADSVFILSYSIIMLNTDLHNPQVKEHMSFEDYSGNLKGCCNHKDFPFWYLDRIYCSIRDKEIVMPEEHHGNEKWFEDAWNNLISSTTVITEIKKDTQSVMDKLTPLELLNFDRAIFKQVGPSIVSTLFNIYVVASDDHISTRMITSLDKCSYISAFFDFKDLFNDILNSIAKGTTLINSSHDDELSTLAFEYGPMPLVQIKFEDTNTEIPVSTDAVRFGRSFKGQLNTVVFFRIIRRNKDPKIFSKELWLNIVNIILTLYEDLILSPDIFPDLQKRLKLSNLPKPSPEISINKSKESKGLLSTFASYLKGDEEPTEEEIKSSKKAMECIKSSNIAASVFGNESNITADLIKTLLDSAKTEKNADNSRYFEAELLFIIELTIALFLFCKEEKELGKFILQKVFQLSHTKGLTKRTVRRMLTYKILLISLCADQTEYLSKLINDELLKKGDIFTQKFFATNQGKEFLKRLFSLTESEFYRGFLLGNENFWKFLRKVTAMKEQSESIFEYLNESIKTDSNILTNENFMWVLGLLDEISSMGAVGNHWEIEYKKLTESGHKIDKENPYKKSIELSLKSIQLTSHLLEDNNDLRKNEIFAIIQALAHQCINPCKQISEFAVVTLEQTLINKIEIPTNEMESVEELIEGGLLPLLNSSETQEDQKILISSILTIISNVYLHYLKLGKTSNETFLKILSIFNKFVEDSDIEKKLQQLILDKKSIEKGNGSSSHGSAHEQTPESNDVEIEATAPIDDNTDDDNKPKLSDVEKD
notes: Gea2, S. cerevisiae, Arf guanine nucleotide exchange factor, 1459 residues, amplified from genomic DNA of BY4741, vector pMCSG21; Homodimer by mass photometry and cryo-EM; also called Gea2 dimer

Tests used:
[1] = molecular target: T1, ΔNT17 Q72L Arl1 in the Arl1–Gea2 complex (Saccharomyces cerevisiae, UniProt P38116, Q72L); assay: cryo-EM structure ([…] Å); type: binding; settings: 1 mM GTP, 1 mM MgCl2, 1 mM TCEP, HEPES pH 7.4, 4 °C; Arl1 nucleotide site; Gea2 bound
T1 construct: Arl1 lacking N-terminal 17 residues, Q72L, C-terminal 6xHis; full-length Gea2 (1459 residues, dimer), N-terminal 6xHis; both from E. coli NiCo21(DE3); two Arl1 on one Gea2 dimer; with ARF guanine-nucleotide exchange factor 2
T1 sequence (P38116 18-183 Q72L): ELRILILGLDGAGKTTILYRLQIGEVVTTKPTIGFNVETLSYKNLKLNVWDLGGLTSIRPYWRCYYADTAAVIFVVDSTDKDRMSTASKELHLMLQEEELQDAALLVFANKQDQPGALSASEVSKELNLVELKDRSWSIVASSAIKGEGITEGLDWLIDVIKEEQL
T1 sequence (P39993 1-1459 partner): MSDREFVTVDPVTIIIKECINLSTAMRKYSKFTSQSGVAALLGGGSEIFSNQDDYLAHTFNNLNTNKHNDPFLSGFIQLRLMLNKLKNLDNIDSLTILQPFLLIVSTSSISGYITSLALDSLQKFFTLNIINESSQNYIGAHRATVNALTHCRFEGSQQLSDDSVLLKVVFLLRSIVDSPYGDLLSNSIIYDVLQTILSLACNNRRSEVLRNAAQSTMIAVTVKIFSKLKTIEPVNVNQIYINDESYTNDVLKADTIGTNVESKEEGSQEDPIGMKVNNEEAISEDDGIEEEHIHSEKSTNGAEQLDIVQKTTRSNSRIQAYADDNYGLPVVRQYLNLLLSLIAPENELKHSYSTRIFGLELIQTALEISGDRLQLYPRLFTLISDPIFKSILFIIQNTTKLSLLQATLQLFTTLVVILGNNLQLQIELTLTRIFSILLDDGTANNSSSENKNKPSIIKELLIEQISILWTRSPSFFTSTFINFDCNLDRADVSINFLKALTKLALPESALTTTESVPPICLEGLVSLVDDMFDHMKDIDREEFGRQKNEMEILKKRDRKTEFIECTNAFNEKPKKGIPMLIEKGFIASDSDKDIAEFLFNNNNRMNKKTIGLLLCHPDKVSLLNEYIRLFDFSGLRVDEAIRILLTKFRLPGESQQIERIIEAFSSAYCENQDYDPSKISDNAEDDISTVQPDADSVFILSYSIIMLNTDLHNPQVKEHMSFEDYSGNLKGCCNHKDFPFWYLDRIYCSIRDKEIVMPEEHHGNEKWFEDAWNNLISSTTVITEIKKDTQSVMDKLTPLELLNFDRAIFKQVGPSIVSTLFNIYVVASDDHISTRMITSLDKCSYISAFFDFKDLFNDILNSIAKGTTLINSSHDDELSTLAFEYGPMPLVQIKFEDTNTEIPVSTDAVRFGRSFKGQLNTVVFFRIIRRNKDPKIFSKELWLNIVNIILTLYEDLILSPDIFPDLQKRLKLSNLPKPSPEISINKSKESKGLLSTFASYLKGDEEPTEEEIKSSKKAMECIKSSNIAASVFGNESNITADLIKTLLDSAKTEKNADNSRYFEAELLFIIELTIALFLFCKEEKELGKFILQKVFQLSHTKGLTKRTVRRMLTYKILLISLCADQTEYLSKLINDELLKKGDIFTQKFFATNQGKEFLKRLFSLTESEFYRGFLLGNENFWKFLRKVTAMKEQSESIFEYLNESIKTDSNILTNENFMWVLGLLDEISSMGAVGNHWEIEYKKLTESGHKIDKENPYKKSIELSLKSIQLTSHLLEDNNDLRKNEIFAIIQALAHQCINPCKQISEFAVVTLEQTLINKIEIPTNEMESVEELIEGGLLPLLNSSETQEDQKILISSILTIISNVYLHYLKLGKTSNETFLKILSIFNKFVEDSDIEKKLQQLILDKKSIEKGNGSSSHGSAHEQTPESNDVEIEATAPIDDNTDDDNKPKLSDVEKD

[2] = molecular target: the molecule itself; assay: mass photometry; 44.2 nM Gea2, Refeyn TwoMP, calibrated with β-amylase and thyroglobulin
[3] = molecular target: B1; assay: SEC; 0.74 μM Gea2 (monomer) with 10-fold molar excess of ΔNT17 Q72L Arl1, 20 mM HEPES pH 7.4, 150 mM NaCl, 1 mM MgCl2, 1 mM TCEP, 1 mM GTP, 4 °C overnight; Superose 6 Increase 10/300 GL; peak fractions on SDS-PAGE; settings: both partners purified

Molecule: Nc1nc2c(ncn2[C@@H]2O[C@H](COP(=O)(O)OP(=O)(O)OP(=O)(O)O)[C@@H](O)[C@H]2O)c(=O)[nH]1 [GTP]
- cryo-EM structure (3.3 Å) [1]: far away from the γ-phosphate of the bound GTP in our structure

Molecule: B1
- stoichiometry N [2]: 2

- binding result [3]: binds
B2: N-terminal 17-residue truncated Q72L Arl1 with a C-terminal 6xHis-tag (natural protein, S. cerevisiae, UniProt P38116 18-183, looked up)
chain: ELRILILGLDGAGKTTILYRLQIGEVVTTKPTIGFNVETLSYKNLKLNVWDLGGLTSIRPYWRCYYADTAAVIFVVDSTDKDRMSTASKELHLMLQEEELQDAALLVFANKQDQPGALSASEVSKELNLVELKDRSWSIVASSAIKGEGITEGLDWLIDVIKEEQL
notes: Arl1, S. cerevisiae, the N-terminal 17 residues (amphipathic helix) removed, Q72L keeps it GTP-restricted; vector pMCSG28; mixed with Gea2 in buffer with 1 mM GTP; also called ΔNT17 Q72L Arl1; Arl1-GTP
